According to paper PMC7822592, “The half-life of the bone-derived hormone osteocalcin is regulated through O-glycosylation in mice, but not in humans” (eLife, 2020):
No end group written: not given here.

Columns and labels:
[1] = Ex vivo half-life of mouse OCN in plasma; assay type: in vitro ADME; settings: 100 ng/ml
Experimental: The mouse OCN ex vivo half-life assays were performed with fresh plasma (lithium heparin) collected from four independent Bglap-/- mice. Glycosylated OCN produced in HEK293 cells and non-glycosylated OCN, produced in bacteria as previously described ([Ferron et al., 2012]), were incubated at 100 ng/ml in plasma at 37°C and OCN level was measured at indicated time points using the total mouse OCN ELISA assay described previously ([Ferron et al., 2010b]). […] The detection antibody is a goat polyclonal antibody directed against the C-terminal region (amino acids 26 to 46) of mouse OCN (anti-CTERM OCN). This assay detects with the same sensitivity glycosylated and non-glycosylated mouse OCN at concentration of 50 ng/ml or less (Figure 3—figure supplement 2). Therefore, all samples were diluted to be in this range before being measured by the ELISA. Human OCN half-life assay was performed ex vivo using Bglap-/- mice plasma and human OCN at 60 ng/ml. Human OCN level was measured at different time point using the human ucOCN ELISA described above. At the experiment start point (T0), an aliquot of plasma was diluted in ELISA assay buffer and kept on ice for OCN measurements. In some experiments, plasma was heat-inactivated for 30 min at 56°C, or treated with EDTA (10 mM, Wisent), phenylmethylsulfonyl fluoride (PMSF, 10 mM, Sigma), pepstatin A (Pep A, 10 μM, Sigma) which inhibits aspartic proteases (pepsin, cathepsin D, renin, chymosin), RVKR (Dec-RVKR-CMK, 50 μM; Tocris) or talabostat (10 mM; Tocris). Results are calculated in percentage relative to the initial concentration of non-glycosylated and glycosylated OCN respectively.

INS-1 832/3 cells = experiment: Ins1 gene expression in INS-1 832/3 cells treated with ucOCN; assay type: cell-based, rat; settings: 8 hr; for Ins1 gene expression (Fold change relative to vehicle): 0.3 ng/mL, qPCR
Experimental: The INS-1 832/3 rat insulinoma cell line (Millipore-Sigma) was cultured in RPMI-1640 with 11.1 mM D-glucose, supplemented with 2 mM L-glutamine, 1 mM sodium pyruvate, 10 mM HEPES, 0.05 mM β-mercaptoethanol and 10% FBS ([Hohmeier et al., 2000]). On day 1, cells were plated at 3 × 10^5 cells per well in 12-well plates and on day 5, cells were washed with PBS and incubated with culture media containing 5 mM D-glucose. Twenty-four hours later, cells were washed with PBS and incubated for 4 hr in culture media containing 1% FBS, 5 mM D-glucose and 0.1% BSA. OCN was added for 8 hr before supernatants and cells were harvested. ucOCN and O-gly ucOCN concentration were measured in supernatants by ELISA and cells were lyzed and RNA extracted as described in the material and methods section. Gene expression was analyzed using rat specific primers for Ins1 and Gapdh.

ucOCN: Non-glycosylated uncarboxylated mouse osteocalcin produced in bacteria (YLGASVPSPDPLEPTREQCELNPACDELSDQYGLKTAYKRIYGITI; ends and bridges not checked; cysteine pairing not given here; UniProt P86546 50-95, looked up)
% OCN from initial ([1]; Figure 3D, Bglap-/- mouse plasma, 2hrs, 37°C, Not HI, ELISA, replicate 2): 23.3%
% OCN from initial ([1]; Figure 3D, Bglap-/- mouse plasma, 2hrs, 37°C, Not HI, ELISA, replicate 3): 37.9%
% OCN from initial ([1]; Figure 3D, Bglap-/- mouse plasma, T0, ELISA, replicate 1): 101.3%
% OCN from initial ([1]; Figure 3D, Bglap-/- mouse plasma, T0, ELISA, replicate 2): 100.0%
% OCN from initial ([1]; Figure 3D, Bglap-/- mouse plasma, T0, ELISA, replicate 3): 98.7%
% OCN from initial ([1]; Figure 3 supplement 3A, 3.5% BSA in saline solution, 2 hours at 37 °C, replicate 1): 108.8%
% OCN from initial ([1]; Figure 3 supplement 3A, 3.5% BSA in saline solution, 2 hours at 37 °C, replicate 2): 110.0%
% OCN from initial ([1]; Figure 3 supplement 3A, 3.5% BSA in saline solution, 2 hours at 37 °C, replicate 3): 106.2%
% OCN from initial ([1]; Figure 3 supplement 3A, Bglap-/- mouse plasma, 4°C, T=2hours, replicate 1): 94.9%
% OCN from initial ([1]; Figure 3 supplement 3A, Bglap-/- mouse plasma, 4°C, T=2hours, replicate 2): 99.7%
% OCN from initial ([1]; Figure 3 supplement 3A, Bglap-/- mouse plasma, 4°C, T=2hours, replicate 3): 100.1%
% OCN from initial ([1]; Figure 3 supplement 3A, Bglap-/- mouse plasma, 2 hours at 37 °C, Pepstatin A (10uM), replicate 1): 52.2%
% OCN from initial ([1]; Figure 3 supplement 3A, Bglap-/- mouse plasma, 2 hours at 37 °C, Pepstatin A (10uM), replicate 2): 57.4%
% OCN from initial ([1]; Figure 3 supplement 3A, Bglap-/- mouse plasma, 2 hours at 37 °C, Pepstatin A (10uM), replicate 3): 69.1%
% OCN from initial ([1]; Figure 3 supplement 3A, Bglap-/- mouse plasma, 2 hours at 37 °C, RVKR (50uM), replicate 1): 56.2%
% OCN from initial ([1]; Figure 3 supplement 3A, Bglap-/- mouse plasma, 2 hours at 37 °C, RVKR (50uM), replicate 2): 66.8%
% OCN from initial ([1]; Figure 3 supplement 3A, Bglap-/- mouse plasma, 2 hours at 37 °C, RVKR (50uM), replicate 3): 78.0%
% OCN from initial ([1]; Figure 3 supplement 3A, Bglap-/- mouse plasma, 2 hours at 37 °C, vehicle (V), replicate 1): 48.4%
% OCN from initial ([1]; Figure 3 supplement 3A, Bglap-/- mouse plasma, 2 hours at 37 °C, vehicle (V), replicate 2): 65.6%
% OCN from initial ([1]; Figure 3 supplement 3A, Bglap-/- mouse plasma, 2 hours at 37 °C, vehicle (V), replicate 3): 67.2%
% OCN from initial ([1]; Figure 3 supplement 3A, Bglap-/- mouse plasma, T0, replicate 1): 107.3%
% OCN from initial ([1]; Figure 3 supplement 3A, Bglap-/- mouse plasma, T0, replicate 2): 96.2%
% OCN from initial ([1]; Figure 3 supplement 3A, Bglap-/- mouse plasma, T0, replicate 3): 96.6%
% OCN from initial ([1]; Figure 3 supplement 3B, Bglap-/- mouse plasma, 4°C, T=2hours, replicate 1): 108.8%
% OCN from initial ([1]; Figure 3 supplement 3B, Bglap-/- mouse plasma, 4°C, T=2hours, replicate 2): 99.4%
% OCN from initial ([1]; Figure 3 supplement 3B, Bglap-/- mouse plasma, 4°C, T=2hours, replicate 3): 94.3%
% OCN from initial ([1]; Figure 3 supplement 3B, Bglap-/- mouse plasma, 2 hours at 37 °C, 10 mM EDTA, replicate 1): 37.4%
% OCN from initial ([1]; Figure 3 supplement 3B, Bglap-/- mouse plasma, 2 hours at 37 °C, 10 mM EDTA, replicate 2): 24.3%
% OCN from initial ([1]; Figure 3 supplement 3B, Bglap-/- mouse plasma, 2 hours at 37 °C, 10 mM EDTA, replicate 3): 37.4%
% OCN from initial ([1]; Figure 3 supplement 3B, Bglap-/- mouse plasma, 2 hours at 37 °C, vehicle (V), replicate 1): 34.6%
% OCN from initial ([1]; Figure 3 supplement 3B, Bglap-/- mouse plasma, 2 hours at 37 °C, vehicle (V), replicate 2): 23.3%
% OCN from initial ([1]; Figure 3 supplement 3B, Bglap-/- mouse plasma, 2 hours at 37 °C, vehicle (V), replicate 3): 37.9%
% OCN from initial ([1]; Figure 3 supplement 3B, Bglap-/- mouse plasma, T0, replicate 1): 101.3%
% OCN from initial ([1]; Figure 3 supplement 3B, Bglap-/- mouse plasma, T0, replicate 2): 100.0%
% OCN from initial ([1]; Figure 3 supplement 3B, Bglap-/- mouse plasma, T0, replicate 3): 98.7%
half-life in plasma ex vivo ([1]; fresh Bglap-/- mouse plasma (lithium heparin), 37°C, total mouse OCN ELISA, n = 4 plasma): ~ 120 min
Ins1 gene expression (Fold change relative to vehicle) (INS-1 832/3 cells; replicate 1): 0.663 Fold change
Ins1 gene expression (Fold change relative to vehicle) (INS-1 832/3 cells; replicate 2): 1.9 Fold change
Ins1 gene expression (Fold change relative to vehicle) (INS-1 832/3 cells; replicate 3): 0.6 Fold change
Ins1 gene expression (Fold change relative to vehicle) (INS-1 832/3 cells; replicate 4): 1.4 Fold change
Ins1 gene expression (Fold change relative to vehicle) (INS-1 832/3 cells; replicate 5): 0.337 Fold change
Ins1 gene expression (Fold change relative to vehicle) (INS-1 832/3 cells; replicate 6): 0.4 Fold change
Ins1 gene expression (Fold change relative to vehicle) (INS-1 832/3 cells; replicate 7): 2.7 Fold change
Ins1 gene expression (Fold change relative to vehicle) (INS-1 832/3 cells; replicate 8): 3.6 Fold change
Ins1 gene expression (Fold change relative to vehicle) (INS-1 832/3 cells; replicate 9): 2.4 Fold change
Ins1 gene expression (Fold change relative to vehicle) (INS-1 832/3 cells; replicate 10): 1.3 Fold change
Ins1 expression increase (INS-1 832/3 cells; 0.3 ng/ml, quantitative PCR): 1.5 fold
